Test results: article PMC7144924 (Nucleic Acids Research, 2020)

Biological target: T1, GST-tagged R289A mutant Rrp9 (S. cerevisiae, UniProt Q06506 1-573, R289A)
T1 sequence (looked up): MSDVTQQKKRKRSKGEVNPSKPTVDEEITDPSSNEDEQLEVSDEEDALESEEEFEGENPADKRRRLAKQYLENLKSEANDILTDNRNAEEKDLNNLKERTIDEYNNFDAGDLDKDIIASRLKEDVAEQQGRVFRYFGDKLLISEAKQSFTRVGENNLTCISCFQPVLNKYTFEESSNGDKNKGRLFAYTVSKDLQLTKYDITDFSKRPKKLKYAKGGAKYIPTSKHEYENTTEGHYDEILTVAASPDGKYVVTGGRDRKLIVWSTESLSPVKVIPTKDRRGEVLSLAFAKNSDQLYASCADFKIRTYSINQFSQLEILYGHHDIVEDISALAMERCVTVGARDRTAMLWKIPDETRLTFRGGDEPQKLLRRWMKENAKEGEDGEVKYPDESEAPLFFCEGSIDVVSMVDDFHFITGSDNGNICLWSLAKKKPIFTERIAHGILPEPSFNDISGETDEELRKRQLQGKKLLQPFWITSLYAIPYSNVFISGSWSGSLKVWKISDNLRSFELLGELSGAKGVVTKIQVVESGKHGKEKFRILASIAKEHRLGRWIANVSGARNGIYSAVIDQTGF
Assay: pull-down

B1: [35S]-methionine-labeled Rrp36, in vitro translated (natural protein, S. cerevisiae, UniProt Q12481 1-300, looked up)
chain: MSYYFKNLKPDLNSDVEEDDGNLLESIMANKSKREIDEQESSDDELKTLSFGSLKKAETVIDEEDFKDTKPVHKKPITTTYREESFDEDEDSEDQSDEDAGFFEEDSEDETHHGQKVPKKKSKHAPVEQSSKKRVPRVRNIPGLEIPRNKRSNLYQDIRFDKSTGKALDSSIIRKRYQFLDEYREKEIDELQKLLQERKFLSKIDQGEREEMEQRLKSMKSRLQSMKNKDLEREILKEYENDMNKNNNTRYHLKKSEKRKVVQKWKFDHMKAKQREKVMERKRKKRLGKEFKQFEFHNRR
modifications: [35S]-methionine-labeled
  reduction of recovery relative to WT Rrp9: 20%
